Assay results: paper PMC12495166, “Enhanced solid tumor cell targeting by a neoepitope-encoding oncolytic measles virus combined with CAR therapy” (Molecular Therapy Oncology, 2025)

What was measured:
[1] = biological target: T1, MICB-derived octapeptide VLQSQRTD (soluble) (human); assay: SPR
T1 peptide: VLQSQRTD

[2] = biological target: T2, MICB-derived octapeptide VLQSQRTD (soluble) (Homo sapiens); assay: SPR; antibodies (2 μg/mL) immobilised on an IgG-capture sensor chip; peptides as analyte, 0.5-100 nM octapeptide or 1-200 μM 13-aa peptide; single-cycle kinetics; HBS-EP pH 7.4, 30 μL/min; Sierra SPR-24 Pro; details: both partners purified
T2 construct: stalk octapeptide starting at position V302 and ending N-terminally of the annotated transmembrane domain; also called immunization peptide
T2 chain: VLQSQRTD

B1: monoclonal antibody clone 12F7 (antibody, V domains shown)
VH: QVQLQQSGAELVRPGTSVKVSCKASGYAFTNYLIEWIKQRPGQGLEWIGVINPRSGGTNYNEKFKGKATLTADKSSITVYMQLSSLTSDDSAIYFCVRSESYGDYGAWFAYWGQGTLVTVSA
VL: DIVLTQSPASLAVSLGQRATISCRASESVDSYGNSFMHWYQQKPGQPPKLLIDRASNRESGIPARFSGSGSRTDFTLTINPVEADDVATYYCQQSNEDPFTFGSGTKLEIK
notes: variable heavy domain of clone 12F7; constant region of the murine heavy chain; variable light domain of clone 12F7; constant region of the murine light chain; also called 12-F7-C12-E3; mAb 12F7; source: mouse hybridoma (ProteoGenix), purified by protein A/G
B1 gave a koff [1] of 0.00536 s⁻¹ and a Kd [2] of 3.85 nM.
